Columns and labels:
[1] = molecular target: β-arrestin2 (UniProt P32121); test: GST pull-down from cell lysate; details: reference: YFP-GCN2 wild type; sites T899
[2] = molecular target: β-arrestin1 (UniProt P49407); test: GST pull-down from cell lysate; details: reference: YFP-GCN2 wild type; sites T899

What does the source list for “GCN2 1-1649 (from UniProt Q9P2K8) YFP-GCN2 T899A”?
binding against the reference [1]: stronger; binding against the reference [2]: stronger
